Reference: US20240076403A1
Blank lines part the entries; values can stand above or below the substance they belong to.

What was measured:
[1] = target: human HER2-His protein (Acro, Cat. No. HE2-H5225) (human) (UniProt P04626); test: ELISA, 100 nM
[2] = target: monkey HER2-His protein (Sino Biological, Cat. No. 90295-C08H) (monkey); test: ELISA, 100 nM
[3] = target: human HER2 protein on cells (SK-BR-3 endogenous; CHO-K1-human HER2 recombinant) (human) (UniProt P04626); test: FACS on CHO-K1-human HER2 cells
[4] = target: human HER2-His protein (Acro, Cat. No. HE2-H5225) (human) (UniProt P04626); test: ELISA, 10 nM
[5] = target: monkey HER2-His protein (Sino Biological, Cat. No. 90295-C08H) (monkey); test: ELISA, 10 nM
[6] = target: human HER2-His protein (Acro, Cat. No. HE2-H5225) (human) (UniProt P04626); test: ELISA, 1 nM
[7] = target: human HER2-His protein (Acro, Cat. No. HE2-H5225) (human) (UniProt P04626); test: ELISA, 1 nM; remark: listed apart in the source
[8] = target: human HER2-His protein (Acro, Cat. No. HE2-H5225) (human) (UniProt P04626); test: ELISA, 0.00001 nM
[9] = target: monkey HER2-His protein (Sino Biological, Cat. No. 90295-C08H) (monkey); test: ELISA, 0.00001 nM
[10] = target: human HER2-His protein (Acro, Cat. No. HE2-H5225) (human) (UniProt P04626); test: ELISA, 0.1 nM
[11] = target: monkey HER2-His protein (Sino Biological, Cat. No. 90295-C08H) (monkey); test: ELISA, 0.1 nM
[12] = target: human HER2-His protein (Acro, Cat. No. HE2-H5225) (human) (UniProt P04626); test: ELISA, 0.01 nM
[13] = target: monkey HER2-His protein (Sino Biological, Cat. No. 90295-C08H) (monkey); test: ELISA, 0.01 nM
[14] = target: human HER2-His protein (Acro, Cat. No. HE2-H5225) (human) (UniProt P04626); test: ELISA, 10 nM; remark: listed apart in the source
[15] = target: human HER2 protein on cells (SK-BR-3 endogenous; CHO-K1-human HER2 recombinant) (human) (UniProt P04626); test: FACS on SK-BR-3 cells
[16] = target: human HER2-His protein (Acro, Cat. No. HE2-H5225) (human) (UniProt P04626); test: ELISA, 0.001 nM
[17] = target: human HER2-His protein (Acro, Cat. No. HE2-H5225) (human) (UniProt P04626); test: ELISA, 0.001 nM; remark: listed apart in the source
[18] = target: monkey HER2-His protein (Sino Biological, Cat. No. 90295-C08H) (monkey); test: ELISA, 0.001 nM
[19] = target: human HER2-His protein (Acro, Cat. No. HE2-H5225) (human) (UniProt P04626); test: ELISA, 0.0001 nM
[20] = target: monkey HER2-His protein (Sino Biological, Cat. No. 90295-C08H) (monkey); test: ELISA, 0.0001 nM
[21] = target: monkey HER2-His protein (monkey); test: ELISA, coated monkey HER2-His
[22] = target: monkey HER2 on HEK293T-monkey-HER2 cells (monkey); test: FACS on HEK293T-monkey-HER2 cells

- OD450 [1]: 0.06
- OD450 [2]: 0.12
- Max MFI [3]: 71
- OD450 [4]: 0.06
- OD450 [5]: 0.07
- OD450 [6]: 0.06
- OD450 [7]: 0.05
- OD450 [8]: 0.05
- OD450 [9]: 0.05
- OD450 [10]: 0.05
- OD450 [11]: 0.05
- OD450 [12]: 0.06
- OD450 [13]: 0.08
- OD450 [14]: 0.05
- Max MFI [15]: 73
- OD450 [16]: 0.06
- OD450 [17]: 0.05
- OD450 [18]: 0.05
- OD450 [19]: 0.06
- OD450 [20]: 0.06
Substance: hIgG1 (IgG subtype control) (antibody)

- OD450 nm at 0.0001 nM antibody [21]: 0.06 OD450 nm
- OD450 nm at 0.001 nM antibody [21]: 0.09 OD450 nm
- OD450 nm at 0.01 nM antibody [21]: 0.05 OD450 nm
- OD450 nm at 0.1 nM antibody [21]: 0.06 OD450 nm
- OD450 nm at 1 nM antibody [21]: 0.05 OD450 nm
- OD450 nm at 10 nM antibody [21]: 0.05 OD450 nm
- OD450 nm at 100 nM antibody [21]: 0.09 OD450 nm
- Max MFI [22]: 127 MFI
Substance: hIgG1 (antibody)
